Data as given in the supplement of paper PMC7125110.
± gives the standard error. For some of these results: Fewer inactive variants are shown than the library holds.

B1: glmS ribozyme (parent)
chain: AUAAAAGCGCCAGAACUACAGAAAUGUAGUUGACGAGGAGGAGGUUUAUCGAAUUUUCGGCGGAUGCCUCCAAA

Legend:
Conditions in all cases: with glucosamine-6-phosphate
glucosamine-6-phosphate [1] = variants of: B1; assay: kcat; higher = faster cleavage; RNA array
Method in brief: (§1)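 The measurements used barcoded ribozyme variants on sequenced MiSeq chips, transcribed in situ by E. coli RNA polymerase and tracked at 37 °C with a hybridised Cy3 probe. Glucosamine-6-phosphate, 40 μM to 10 mM in HEPES/KCl/Mg(OAc)2 buffer, was flowed in while tiles were imaged over ~14 h. Baseline-normalised signals, also normalised to non-cleaving reference variants, gave per-tile medians that were fit to one- or two-exponential decays for kobs. kcat and KM resulted from weighted Michaelis–Menten fits across concentrations.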

glucosamine-6-phosphate [2] = variants of: B1; assay: self-cleavage kobs at 40 uM GlcN6P; higher = faster cleavage; RNA array
Method in brief: as §1

glucosamine-6-phosphate [3] = variants of: B1; assay: KM; higher = weaker cofactor use; RNA array
Method in brief: as §1

glucosamine-6-phosphate [4] = variants of: B1; assay: self-cleavage kobs at 2500 uM GlcN6P; higher = faster cleavage; RNA array
Method in brief: as §1

glucosamine-6-phosphate [5] = variants of: B1; assay: self-cleavage kobs at 10000 uM GlcN6P; higher = faster cleavage; RNA array
Method in brief: as §1

glucosamine-6-phosphate [6] = variants of: B1; assay: self-cleavage kobs at 160 uM GlcN6P; higher = faster cleavage; RNA array
Method in brief: as §1

glucosamine-6-phosphate [7] = variants of: B1; assay: self-cleavage kobs at 640 uM GlcN6P; higher = faster cleavage; RNA array
Method in brief: as §1

| Variant | kcat (glucosamine-6-phosphate [1]) [s⁻¹] | self-cleavage kobs at 40 uM GlcN6P (glucosamine-6-phosphate [2]) [s⁻¹] | KM (glucosamine-6-phosphate [3]) [mM] | self-cleavage kobs at 2500 uM GlcN6P (glucosamine-6-phosphate [4]) [s⁻¹] | self-cleavage kobs at 10000 uM GlcN6P (glucosamine-6-phosphate [5]) [s⁻¹] | self-cleavage kobs at 160 uM GlcN6P (glucosamine-6-phosphate [6]) [s⁻¹] | self-cleavage kobs at 640 uM GlcN6P (glucosamine-6-phosphate [7]) [s⁻¹] |
| --- | --- | --- | --- | --- | --- | --- | --- |
| C8U G51U C70U | 1.2e-05 ± 2.2e-06 | < 1e-05 |  |  |  |  |  |
| A12C A64C | 0.000233 ± 1.8e-05 |  | 4.85 ± 0.77 | 8.34e-05 ± 1.5e-05 | 0.000156 ± 2e-05 |  |  |
| A12C U46C | 0.00298 ± 0.0008 | 7.98e-05 ± 1.5e-05 | 1.68 ± 0.59 | 0.00273 ± 0.00089 | 0.0026 ± 0.00058 | 0.000265 ± 5.1e-05 | 0.000606 ± 0.00017 |
| A6C U55G | 0.00017 ± 7.1e-06 |  | 8.25 ± 0.64 | 4.01e-05 ± 9.6e-06 | 9.3e-05 ± 1.1e-05 |  |  |
| A12G A52U | < 1e-05 | < 1e-05 |  |  |  |  | < 1e-05 |
| A12G G32U C70U | 0.00103 ± 0.00043 |  |  | 0.000425 ± 9e-05 | 0.00121 ± 0.00019 | 0.000103 ± 1.9e-05 | 0.000285 ± 6.9e-05 |
| C11U A14U | 0.00134 ± 0.00035 |  | 2.13 ± 0.81 | 0.00104 ± 0.00013 | 0.000984 ± 0.00014 | 9.95e-05 ± 1.2e-05 | 0.000266 ± 3.5e-05 |
| C11U G66A | 0.000908 ± 0.00021 |  | 2.51 ± 1.1 | 0.000661 ± 0.00015 | 0.000673 ± 0.00012 |  | 0.000205 ± 6e-05 |
| A6U U30C | < 1e-05 |  |  | < 1e-05 |  |  | < 1e-05 |
| C11G G32A U69G | 3.08e-05 ± 7e-06 |  |  |  |  |  |  |
| C8U A42U | < 1e-05 |  |  |  |  |  | < 1e-05 |
| A12G G40U | 0.000365 ± 1.8e-05 |  | 3.74 ± 0.35 | 0.000148 ± 1.3e-05 | 0.000265 ± 1.9e-05 |  | 5.37e-05 ± 6.7e-06 |
| G7A U69A | 1.56e-05 ± 3.6e-06 |  |  |  |  |  |  |
| A6U C58G | < 1e-05 | < 1e-05 |  |  | < 1e-05 |  |  |
| A12C G60A | < 1e-05 |  |  |  |  | < 1e-05 | < 1e-05 |
| A6G A12G | 1.13e-05 ± 1.3e-06 |  |  |  |  |  |  |
| A6U G7A | < 1e-05 |  |  |  |  | < 1e-05 | < 1e-05 |
| A6U A15G | 0.000987 ± 0.00028 |  |  | 0.0002 ± 3.8e-05 | 0.000441 ± 5.1e-05 |  | 4.1e-05 ± 1.2e-05 |
| C11U | 0.00338 ± 0.00074 | 8.01e-05 ± 1.4e-06 | 1.8 ± 0.45 | 0.00508 ± 0.0016 | 0.00293 ± 9.8e-05 | 0.000216 ± 7.8e-06 | 0.000837 ± 8.1e-05 |
| C11G | < 1e-05 | < 1e-05 | 0.665 ± 0.26 |  | < 1e-05 |  |  |
| C11A | 0.000291 ± 2.1e-05 | < 1e-05 | 2.28 ± 0.28 | 0.000153 ± 3.1e-06 | 0.000236 ± 1.4e-05 | 2.39e-05 ± 2.4e-06 | 6.25e-05 ± 1.7e-06 |

| Variant | kcat (glucosamine-6-phosphate [1]) [s⁻¹] | self-cleavage kobs at 40 uM GlcN6P (glucosamine-6-phosphate [2]) [s⁻¹] | KM (glucosamine-6-phosphate [3]) [mM] | self-cleavage kobs at 2500 uM GlcN6P (glucosamine-6-phosphate [4]) [s⁻¹] | self-cleavage kobs at 10000 uM GlcN6P (glucosamine-6-phosphate [5]) [s⁻¹] | self-cleavage kobs at 160 uM GlcN6P (glucosamine-6-phosphate [6]) [s⁻¹] | self-cleavage kobs at 640 uM GlcN6P (glucosamine-6-phosphate [7]) [s⁻¹] |
| --- | --- | --- | --- | --- | --- | --- | --- |
| G7C G38C | < 1e-05 |  |  |  | < 1e-05 |  |  |
| C11U U31C A52U | < 1e-05 |  |  |  |  |  |  |
| A6C C8U G35C C58G | < 1e-05 |  |  |  | < 1e-05 |  | < 1e-05 |
| C11G G59U C68A | 1.43e-05 ± 2.1e-06 |  |  |  |  |  |  |
| A12U G38A | < 1e-05 |  |  |  |  |  |  |
| A6C G66A | 8.29e-05 ± 2.9e-06 |  | 3.32 ± 0.32 | 3.57e-05 ± 1.3e-05 | 6.22e-05 ± 1.2e-05 |  |  |
| C11U C34U G63U C70G | 2.22e-05 ± 4.3e-06 |  |  |  |  |  |  |
| A12G C58G C67A | 0.000115 ± 2.4e-05 |  |  | 9.94e-05 ± 2.1e-05 |  |  | 0.000136 ± 3.6e-05 |
| A12C G66U C70U | 0.00136 ± 0.00036 | 3.71e-05 ± 1.5e-05 | 1.19 ± 0.57 | 0.00128 ± 0.00028 | 0.000992 ± 0.00028 |  | 0.000496 ± 0.00012 |
| A6U A15G U30C | 0.000345 ± 9.4e-05 |  |  | 0.00023 ± 6.3e-05 | 0.000255 ± 5.8e-05 |  | 5.44e-05 ± 2e-05 |
| A12G A53U C67U | 0.000372 ± 8.2e-05 |  | 6.21 ± 2 | 0.00011 ± 1.7e-05 | 0.00022 ± 7.2e-05 |  |  |
| A12G U55C | 0.00114 ± 0.00024 |  | 4.74 ± 1.4 | 0.000461 ± 7.4e-05 | 0.000755 ± 9.7e-05 | 4.44e-05 ± 7.8e-06 | 0.000118 ± 1.7e-05 |
| A6U G60C C67A | < 1e-05 |  |  |  | < 1e-05 | < 1e-05 | < 1e-05 |
| C10U A15G | 2.54e-05 ± 2e-06 | < 1e-05 | 4.7 ± 0.91 |  |  |  |  |
| C10U G60A | 1.02e-05 ± 1.8e-06 | < 1e-05 |  |  |  |  |  |
| G9U C50G | 2.48e-05 ± 1.1e-05 |  |  |  |  |  |  |
| C10U A52G | < 1e-05 |  |  |  |  |  |  |
| G7U U55A | < 1e-05 |  |  | < 1e-05 |  | < 1e-05 | < 1e-05 |
| A12G U56C | 0.000482 ± 5.2e-05 |  | 9.85 ± 1.6 | 9.57e-05 ± 1.7e-05 | 0.000244 ± 3.4e-05 |  | 3.18e-05 ± 1.4e-05 |
| A12C A42G | 0.0188 ± 0.0076 | 0.00118 ± 0.00019 |  | 0.0085 ± 0.0026 | 0.0248 ± 0.0036 | 0.00222 ± 0.00053 | 0.00579 ± 0.0016 |
